From paper PMC4505066 (2015)

B1: wild type GSI motif peptide (CPRPLKEGSITQGTPLKYDTG), SMRT amino acids 1450-1469 with an amino-terminal cysteine [modified: BODIPY-TMR coupled to the N-terminal cysteine; BODIPY-TMR coupled to the N-terminal cysteine] [not stated] / HDAC4 … (parent complex)
chain 1: CPRPLKEGSITQGTPLKYDTG
chain 2: TKPRFTTGLVYDTLMLKHQCTCGSSSSHPEHAGRIQSIWSRLQETGLRGKCECIRGRKATLEELQTVHSEAHTLLYGTNPLNRQKLDSKKLLGSLASVFVRLPCGGVGVDSDTIWNEVHSAGAARLAVGCVVELVFKVATGELKNGFAVVRPPGHHAEESTPMGFCYFNSVAVAAKLLQQRLSVSKILIVDWDVHHGNGTQQAFYSDPSVLYMSLHRYDDGNFFPGSGAPDEVGTGPGVGFNVNMAFTGGLDPPMGDAEYLAAFRTVVMPIASEFAPDVVLVSSGFDAVEGHPTPLGGYNLSARCFGYLTKQLMGLAGGRIVLALEGGHDLTAICDASEACVSALLGNELDPLPEKVLQQRPNANAVRSMEKVMEIHSKYWRCLQRTTSTAGRSLIEAQTCENEEAETVT

Variants of: B1
Test: fluorescence anisotropy

Variant | Kd [µM]
chain 1 P15A | 47
chain 1 T11V | 16.9
chain 1 Q12E | 17.7

Stronger by Kd, values ahead:

Kd [µM] | Variant
14.4 | chain 1 T11A
5.47 | chain 1 Q12A
